Assay results taken from PMC2774266, “Misguided Transcriptional Elongation Causes Mixed Lineage Leukemia” (PLoS Biology, 2009).

Molecular target: endogenous CDK9 (cyclin dependent kinase 9, kinase of pTEFb) (human (endogenous in HEK293T, SEM and …, UniProt P50750 1-372))
Experiment: cell-based or functional assay

Chain of endogenous CDK9 (cyclin dependent kinase 9, kinase of pTEFb) (human (P50750 whole entry): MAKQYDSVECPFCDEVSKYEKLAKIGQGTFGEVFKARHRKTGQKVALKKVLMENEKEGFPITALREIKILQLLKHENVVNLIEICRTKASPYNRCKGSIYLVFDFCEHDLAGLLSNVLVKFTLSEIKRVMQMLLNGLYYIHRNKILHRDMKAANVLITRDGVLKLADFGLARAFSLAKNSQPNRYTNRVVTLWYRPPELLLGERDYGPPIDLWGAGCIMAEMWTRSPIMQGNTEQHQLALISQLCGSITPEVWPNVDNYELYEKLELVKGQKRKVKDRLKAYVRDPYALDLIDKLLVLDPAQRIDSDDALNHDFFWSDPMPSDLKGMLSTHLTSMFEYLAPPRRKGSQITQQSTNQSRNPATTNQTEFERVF

luciferase in the RNA tethering assay (TAR/IIb reporter) of Rev-ENL in 293T cells, relative to Rev alone; contact with pTEFb indirect: ~6 fold
B1: ENL (eleven nineteen leukemia protein), full-length two-hybrid fusion (natural protein, human, UniProt Q03111 1-559, looked up)
chain: MDNQCTVQVRLELGHRAQLRKKPTTEGFTHDWMVFVRGPEQCDIQHFVEKVVFWLHDSFPKPRRVCKEPPYKVEESGYAGFIMPIEVHFKNKEEPRKVCFTYDLFLNLEGNPPVNHLRCEKLTFNNPTTEFRYKLLRAGGVMVMPEGADTVSRPSPDYPMLPTIPLSAFSDPKKTKPSHGSKDANKESSKTSKPHKVTKEHRERPRKDSESKSSSKELEREQAKSSKDTSRKLGEGRLPKEEKAPPPKAAFKEPKMALKETKLESTSPKGGPPPPPPPPPRASSKRPATADSPKPSAKKQKKSSSKGSRSAPGTSPRTSSSSSFSDKKPAKDKSSTRGEKVKAESEPREAKKALEVEESNSEDEASFKSESAQSSPSNSSSSSDSSSDSDFEPSQNHSQGPLRSMVEDLQSEESDEDDSSSGEEAAGKTNPGRDSRLSFSDSESDNSADSSLPSREPPPPQKPPPPNSKVSGRRSPESCSKPEKILKKGTYDKAYTDELVELHRRLMALRERNVLQQIVNLIEETGHFNVTNTTFDFDLFSLDETTVRKLQSCLEAVAT
